# B1: GpH7-B3 variant K334_15Y/GpL16-k0 (antibody, human IgG1, kappa)
# heavy: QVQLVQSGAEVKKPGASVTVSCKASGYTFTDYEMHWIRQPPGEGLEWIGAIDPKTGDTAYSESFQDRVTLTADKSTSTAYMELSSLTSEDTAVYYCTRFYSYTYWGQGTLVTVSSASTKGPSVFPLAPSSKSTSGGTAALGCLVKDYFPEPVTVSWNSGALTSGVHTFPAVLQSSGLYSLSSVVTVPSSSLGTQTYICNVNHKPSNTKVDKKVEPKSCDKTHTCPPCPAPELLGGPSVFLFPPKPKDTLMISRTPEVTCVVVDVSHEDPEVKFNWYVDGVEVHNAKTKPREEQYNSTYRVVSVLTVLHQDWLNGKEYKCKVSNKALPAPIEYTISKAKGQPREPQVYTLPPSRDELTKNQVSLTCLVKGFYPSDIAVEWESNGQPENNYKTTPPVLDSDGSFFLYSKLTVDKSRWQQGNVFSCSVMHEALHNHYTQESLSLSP
# light: DIVMTQSPLSLPVTPGEPASISCQASESLVHSNRNTYLHWYLQKPGQSPQLLIYKVSNRFSGVPDRFSGSGSGTDFTLKISRVEAEDVGVYYCSQNTHVPPTFGQGTKVEIERTVAAPSVFIFPPSDEQLKSGTASVVCLLNNFYPREAKVQWKVDNALQSGNSQESVTEQDSKDSTYSLSSTLTLSKADYEKHKVYACEVTHQGLSSPVTKSFNRGEC
# notes: homodimerized antibody, mutation in both H chains; also called K334_15Y Ho Ab
# B2: GpH7-A5/GpH7-B3 variant K334_01G/GpL16-k0 (antibody, human IgG1, kappa)
# heavy 1: not shown
# heavy 2: not shown
# light: B1 light
# notes: heterodimerized antibody, mutation in one H chain only; also called K334_01G He Ab
# B3: GpH7-B3 variant Y296_07I/GpL16-k0 (antibody, human IgG1, kappa)
# heavy: not shown
# light: B1 light
# notes: homodimerized antibody, mutation in both H chains; also called Y296_07I Ho Ab
# B4: GpH7-A5/GpH7-B3 variant K334_13S/GpL16-k0 (antibody, human IgG1, kappa)
# heavy 1: not shown
# heavy 2: not shown
# light: B1 light
# notes: heterodimerized antibody, mutation in one H chain only; also called K334_13S He Ab
# B5: GpH7-A5/GpH7-B3 variant K334_05P/GpL16-k0 (antibody, human IgG1, kappa)
# heavy 1: not shown
# heavy 2: not shown
# light: B1 light
# notes: heterodimerized antibody, mutation in one H chain only; also called K334_05P He Ab
# B6: GpH7-A5/GpH7-B3 variant K334_03V/GpL16-k0 (antibody, human IgG1, kappa)
# heavy 1: not shown
# heavy 2: not shown
# light: B1 light
# notes: heterodimerized antibody, mutation in one H chain only; also called K334_03V He Ab
# B7: GpH7-B3 variant S267_14T/GpL16-k0 (antibody, human IgG1, kappa)
# heavy: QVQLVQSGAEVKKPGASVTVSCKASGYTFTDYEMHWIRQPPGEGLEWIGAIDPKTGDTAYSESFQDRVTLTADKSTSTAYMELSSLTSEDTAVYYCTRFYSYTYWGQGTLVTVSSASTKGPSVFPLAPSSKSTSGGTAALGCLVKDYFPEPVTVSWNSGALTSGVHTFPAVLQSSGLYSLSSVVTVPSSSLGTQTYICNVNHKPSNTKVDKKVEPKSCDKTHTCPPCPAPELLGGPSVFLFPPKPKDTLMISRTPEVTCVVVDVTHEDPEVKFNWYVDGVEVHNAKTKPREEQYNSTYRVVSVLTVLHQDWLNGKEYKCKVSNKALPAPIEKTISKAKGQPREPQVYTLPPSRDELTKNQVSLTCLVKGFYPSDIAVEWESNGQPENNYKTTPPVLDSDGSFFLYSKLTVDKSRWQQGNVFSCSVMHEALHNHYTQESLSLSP
# light: B1 light
# notes: homodimerized antibody, mutation in both H chains; also called S267_14T Ho Ab
# B8: GpH7-B3 variant P271_19Q/GpL16-k0 (antibody, human IgG1, kappa)
# heavy: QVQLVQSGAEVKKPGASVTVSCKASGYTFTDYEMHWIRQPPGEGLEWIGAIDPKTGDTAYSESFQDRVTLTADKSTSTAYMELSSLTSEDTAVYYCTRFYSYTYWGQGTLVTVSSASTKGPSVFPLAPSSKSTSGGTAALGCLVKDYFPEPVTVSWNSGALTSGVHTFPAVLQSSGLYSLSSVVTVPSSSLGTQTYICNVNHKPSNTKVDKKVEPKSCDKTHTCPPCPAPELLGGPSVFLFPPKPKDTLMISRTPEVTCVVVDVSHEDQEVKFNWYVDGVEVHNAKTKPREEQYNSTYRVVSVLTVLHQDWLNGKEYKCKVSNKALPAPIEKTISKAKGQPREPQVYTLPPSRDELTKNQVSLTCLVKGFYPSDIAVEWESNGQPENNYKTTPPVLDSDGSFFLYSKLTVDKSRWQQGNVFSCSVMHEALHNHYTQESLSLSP
# light: B1 light
# notes: homodimerized antibody, mutation in both H chains; also called P271_19Q Ho Ab
# B9: GpH7-B3 variant P271_10E/GpL16-k0 (antibody, human IgG1, kappa)
# heavy: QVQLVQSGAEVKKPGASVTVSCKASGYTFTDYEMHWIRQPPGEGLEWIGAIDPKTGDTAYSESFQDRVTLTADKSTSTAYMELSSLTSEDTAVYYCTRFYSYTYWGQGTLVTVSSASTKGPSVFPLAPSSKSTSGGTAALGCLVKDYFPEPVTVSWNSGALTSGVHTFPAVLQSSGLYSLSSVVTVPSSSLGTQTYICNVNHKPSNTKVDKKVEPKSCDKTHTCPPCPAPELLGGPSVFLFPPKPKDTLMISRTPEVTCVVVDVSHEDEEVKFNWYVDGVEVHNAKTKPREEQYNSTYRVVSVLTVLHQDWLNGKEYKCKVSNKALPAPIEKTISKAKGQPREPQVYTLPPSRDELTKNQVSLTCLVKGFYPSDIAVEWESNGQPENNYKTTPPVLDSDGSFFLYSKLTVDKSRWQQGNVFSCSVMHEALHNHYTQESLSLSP
# light: B1 light
# notes: homodimerized antibody, mutation in both H chains; also called P271_10E Ho Ab
# B10: GpH7-B3 variant S267_18N/GpL16-k0 (antibody, human IgG1, kappa)
# heavy: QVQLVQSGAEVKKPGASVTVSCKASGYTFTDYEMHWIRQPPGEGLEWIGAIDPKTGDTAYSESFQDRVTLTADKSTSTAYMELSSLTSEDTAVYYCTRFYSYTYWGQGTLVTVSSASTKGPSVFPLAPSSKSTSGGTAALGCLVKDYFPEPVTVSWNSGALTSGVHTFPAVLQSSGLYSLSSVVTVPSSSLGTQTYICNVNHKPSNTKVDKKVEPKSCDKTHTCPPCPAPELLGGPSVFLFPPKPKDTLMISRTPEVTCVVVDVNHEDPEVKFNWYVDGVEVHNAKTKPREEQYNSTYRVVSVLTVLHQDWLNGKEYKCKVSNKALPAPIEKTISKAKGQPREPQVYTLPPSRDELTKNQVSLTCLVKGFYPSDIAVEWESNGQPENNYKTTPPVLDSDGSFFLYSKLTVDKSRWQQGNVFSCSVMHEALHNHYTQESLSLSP
# light: B1 light
# notes: homodimerized antibody, mutation in both H chains; also called S267_18N Ho Ab
# B11: GpH7-B3 variant S267_19Q/GpL16-k0 (antibody, human IgG1, kappa)
# heavy: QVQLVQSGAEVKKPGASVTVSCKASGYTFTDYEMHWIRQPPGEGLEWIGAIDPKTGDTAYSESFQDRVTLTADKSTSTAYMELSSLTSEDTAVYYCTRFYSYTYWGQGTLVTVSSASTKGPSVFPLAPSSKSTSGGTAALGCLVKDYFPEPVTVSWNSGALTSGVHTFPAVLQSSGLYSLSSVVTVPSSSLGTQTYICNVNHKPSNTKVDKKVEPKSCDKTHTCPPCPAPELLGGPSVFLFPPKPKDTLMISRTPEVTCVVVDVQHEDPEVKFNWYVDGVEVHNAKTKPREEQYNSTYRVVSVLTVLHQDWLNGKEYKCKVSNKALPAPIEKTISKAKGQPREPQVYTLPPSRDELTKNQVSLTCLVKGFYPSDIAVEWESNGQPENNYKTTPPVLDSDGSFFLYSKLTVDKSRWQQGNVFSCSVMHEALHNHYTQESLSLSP
# light: B1 light
# notes: homodimerized antibody, mutation in both H chains; also called S267_19Q Ho Ab
# B12: GpH7-A5/GpH7-B3 variant K334_14T/GpL16-k0 (antibody, human IgG1, kappa)
# heavy 1: not shown
# heavy 2: not shown
# light: B1 light
# notes: heterodimerized antibody, mutation in one H chain only; also called K334_14T He Ab
# B13: GpH7-B3 variant S337_18N/GpL16-k0 (antibody, human IgG1, kappa)
# heavy: not shown
# light: B1 light
# notes: homodimerized antibody, mutation in both H chains; also called S337_18N Ho Ab
# B14: GpH7-A5/GpH7-B3 variant K334_19Q/GpL16-k0 (antibody, human IgG1, kappa)
# heavy 1: not shown
# heavy 2: not shown
# light: B1 light
# notes: heterodimerized antibody, mutation in one H chain only; also called K334_19Q He Ab
# B15: GpH7-A5/GpH7-B3 variant K334_18N/GpL16-k0 (antibody, human IgG1, kappa)
# heavy 1: not shown
# heavy 2: not shown
# light: B1 light
# notes: heterodimerized antibody, mutation in one H chain only; also called K334_18N He Ab
# B16: GpH7-B3 variant T335_01G/GpL16-k0 (antibody, human IgG1, kappa)
# heavy: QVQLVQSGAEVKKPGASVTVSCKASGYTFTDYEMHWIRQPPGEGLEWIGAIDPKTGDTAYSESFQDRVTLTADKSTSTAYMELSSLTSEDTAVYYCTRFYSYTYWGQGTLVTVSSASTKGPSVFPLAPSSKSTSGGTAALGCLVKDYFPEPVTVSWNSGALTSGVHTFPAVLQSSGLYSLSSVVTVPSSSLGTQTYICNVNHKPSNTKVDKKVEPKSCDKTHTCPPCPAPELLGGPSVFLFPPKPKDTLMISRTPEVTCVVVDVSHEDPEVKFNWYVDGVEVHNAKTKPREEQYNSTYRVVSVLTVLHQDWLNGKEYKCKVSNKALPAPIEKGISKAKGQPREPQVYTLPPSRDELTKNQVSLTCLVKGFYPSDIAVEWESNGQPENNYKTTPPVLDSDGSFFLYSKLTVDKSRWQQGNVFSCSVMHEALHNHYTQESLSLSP
# light: B1 light
# notes: homodimerized antibody, mutation in both H chains; also called T335_01G Ho Ab
# B17: GpH7-B3 variant P271_01G/GpL16-k0 (antibody, human IgG1, kappa)
# heavy: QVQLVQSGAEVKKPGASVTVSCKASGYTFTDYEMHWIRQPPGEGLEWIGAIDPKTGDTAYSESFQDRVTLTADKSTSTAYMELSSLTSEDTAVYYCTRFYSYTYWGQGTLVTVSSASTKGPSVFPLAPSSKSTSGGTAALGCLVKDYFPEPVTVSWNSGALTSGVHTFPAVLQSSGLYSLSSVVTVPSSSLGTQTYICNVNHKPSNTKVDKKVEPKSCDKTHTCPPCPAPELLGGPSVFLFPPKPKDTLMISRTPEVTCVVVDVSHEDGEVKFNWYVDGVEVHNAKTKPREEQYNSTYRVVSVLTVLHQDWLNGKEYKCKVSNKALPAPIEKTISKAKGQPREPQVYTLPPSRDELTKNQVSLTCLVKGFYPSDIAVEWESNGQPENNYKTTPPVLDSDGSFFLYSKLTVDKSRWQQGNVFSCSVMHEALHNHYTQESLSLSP
# light: B1 light
# notes: homodimerized antibody, mutation in both H chains; also called P271_01G Ho Ab
# B18: GpH7-A5/GpH7-B3 variant K334_15Y/GpL16-k0 (antibody, human IgG1, kappa)
# heavy 1: not shown
# heavy 2: not shown
# light: B1 light
# notes: heterodimerized antibody, mutation in one H chain only; also called K334_15Y He Ab
# B19: GpH7-B3 variant S298_09D/GpL16-k0 (antibody, human IgG1, kappa)
# heavy: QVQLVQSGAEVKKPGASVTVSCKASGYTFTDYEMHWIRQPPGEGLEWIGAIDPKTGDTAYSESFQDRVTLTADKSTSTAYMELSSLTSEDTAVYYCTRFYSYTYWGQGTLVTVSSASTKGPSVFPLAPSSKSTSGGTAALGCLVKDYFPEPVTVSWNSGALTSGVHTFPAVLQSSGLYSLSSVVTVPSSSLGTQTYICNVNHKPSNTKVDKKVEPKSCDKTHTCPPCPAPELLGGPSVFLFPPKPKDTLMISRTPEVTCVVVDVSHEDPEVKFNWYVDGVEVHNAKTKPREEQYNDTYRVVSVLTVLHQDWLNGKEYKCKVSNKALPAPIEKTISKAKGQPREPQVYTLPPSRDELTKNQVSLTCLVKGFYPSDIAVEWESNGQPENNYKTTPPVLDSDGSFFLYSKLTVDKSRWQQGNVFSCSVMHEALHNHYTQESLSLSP
# light: B1 light
# notes: homodimerized antibody, mutation in both H chains; also called S298_09D Ho Ab
# B20: GpH7-B3 variant T335_13S/GpL16-k0 (antibody, human IgG1, kappa)
# heavy: not shown
# light: B1 light
# notes: homodimerized antibody, mutation in both H chains; also called T335_13S Ho Ab
# B21: GpH7-B3 variant K334_19Q/GpL16-k0 (antibody, human IgG1, kappa)
# heavy: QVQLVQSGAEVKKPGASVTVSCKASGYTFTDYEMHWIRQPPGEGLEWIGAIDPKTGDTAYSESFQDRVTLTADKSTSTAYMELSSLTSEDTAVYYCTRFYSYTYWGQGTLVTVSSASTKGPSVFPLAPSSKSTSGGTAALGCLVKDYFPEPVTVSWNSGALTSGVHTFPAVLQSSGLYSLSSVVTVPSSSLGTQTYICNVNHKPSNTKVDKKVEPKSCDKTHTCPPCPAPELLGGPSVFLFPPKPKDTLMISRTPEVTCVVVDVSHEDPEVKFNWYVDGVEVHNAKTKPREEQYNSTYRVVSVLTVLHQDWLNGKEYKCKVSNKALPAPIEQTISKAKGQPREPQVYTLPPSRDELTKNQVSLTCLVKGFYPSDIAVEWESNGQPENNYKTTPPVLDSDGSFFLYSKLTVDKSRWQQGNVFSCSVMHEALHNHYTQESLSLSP
# light: B1 light
# notes: homodimerized antibody, mutation in both H chains; also called K334_19Q Ho Ab
# B22: GpH7-A5/GpH7-B3 variant K326_19Q/GpL16-k0 (antibody, human IgG1, kappa)
# heavy 1: not shown
# heavy 2: not shown
# light: B1 light
# notes: heterodimerized antibody, mutation in one H chain only; also called K326_19Q He Ab
# B23: GpH7-B3 variant S337_16H/GpL16-k0 (antibody, human IgG1, kappa)
# heavy: not shown
# light: B1 light
# notes: homodimerized antibody, mutation in both H chains; also called S337_16H Ho Ab
# B24: GpH7-B3 variant Q295_12R/GpL16-k0 (antibody, human IgG1, kappa)
# heavy: not shown
# light: B1 light
# notes: homodimerized antibody, mutation in both H chains; also called Q295_12R Ho Ab
# B25: GpH7-B3 variant S239_10E/GpL16-k0 (antibody, human IgG1, kappa)
# heavy: not shown
# light: B1 light
# notes: homodimerized antibody, mutation in both H chains; also called S239_10E Ho Ab
# B26: GpH7-A5/GpH7-B3 variant K326_20W/GpL16-k0 (antibody, human IgG1, kappa)
# heavy 1: not shown
# heavy 2: not shown
# light: B1 light
# notes: heterodimerized antibody, mutation in one H chain only; also called K326_20W He Ab
# B27: GpH7-B3 variant L328_15Y/GpL16-k0 (antibody, human IgG1, kappa)
# heavy: not shown
# light: B1 light
# notes: homodimerized antibody, mutation in both H chains; also called L328_15Y Ho Ab
# B28: GpH7-A5/GpH7-B3 variant K326_06M/GpL16-k0 (antibody, human IgG1, kappa)
# heavy 1: not shown
# heavy 2: not shown
# light: B1 light
# notes: heterodimerized antibody, mutation in one H chain only; also called K326_06M He Ab
# B29: GpH7-B3 variant Y296_08L/GpL16-k0 (antibody, human IgG1, kappa)
# heavy: not shown
# light: B1 light
# notes: homodimerized antibody, mutation in both H chains; also called Y296_08L Ho Ab
# Legend:
# [1] = target: T1, FcγRIa extracellular domain with C-terminal His tag (human, UniProt P12314 16-292); test: SPR (Biacore), relative FcγRIa binding, GpH7-B3/GpL16-k0 (HoCon Ab) = 100
# T1 construct: extracellular domain; soluble analyte in Biacore; also called FcgRI; CD64
# T1 sequence (P12314 16-292): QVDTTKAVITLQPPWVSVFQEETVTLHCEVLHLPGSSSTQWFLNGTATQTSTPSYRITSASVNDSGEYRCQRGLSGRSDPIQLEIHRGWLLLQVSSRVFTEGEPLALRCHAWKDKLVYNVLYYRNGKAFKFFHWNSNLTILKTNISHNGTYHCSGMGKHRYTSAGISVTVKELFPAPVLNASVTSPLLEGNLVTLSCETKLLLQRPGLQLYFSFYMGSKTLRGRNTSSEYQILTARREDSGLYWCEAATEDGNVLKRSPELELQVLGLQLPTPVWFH
# [2] = target: T1, FcγRIa extracellular domain with …; test: SPR (Biacore), relative FcγRIa binding, GpH7-A5/GpH7-B3/GpL16-k0 (HeCon Ab) = 100
Binder,Ho/Con_1a [1],He/Con_1a [2]
B1,107 % of control,–
B2,–,104 % of control
B3,106 % of control,–
B4,–,105 % of control
B5,–,104 % of control
B6,–,105 % of control
B7,107 % of control,–
B8,104 % of control,–
B9,103 % of control,–
B10,107 % of control,–
B11,104 % of control,–
B12,–,105 % of control
B13,106 % of control,–
B14,–,106 % of control
B15,–,105 % of control
B16,106 % of control,–
B17,106 % of control,–
B18,–,105 % of control
B19,106 % of control,–
B20,105 % of control,–
B21,106 % of control,–
B22,–,102 % of control
B23,105 % of control,–
B24,101 % of control,–
B25,106 % of control,–
B26,–,103 % of control
B27,104 % of control,–
B28,–,102 % of control
B29,105 % of control,–

# Reference: patent US20180155451A1 (published 2018)
